This is an account of results in PMC7181697.

The target of one experiment is MBP-SHLD2(1–60) (human) (UniProt Q86V20). Description: ITC; ITC200, 25 °C, 20 mM Tris pH 8.0, 150 mM NaCl, 1% glycerol, 1 mM TCEP; one set of sites model.
A further experiment concerns the target REV7^K129A (human) (UniProt Q9UI95). Description: ITC; in the context of MBP-SHLD2(1-60) (Supplementary Fig. 5a, b). Background: Isothermal titration calorimetry measures the heat released or taken up as one component is titrated into another.

Chain of MBP-SHLD2(1–60) (human) (Q86V20 1-60): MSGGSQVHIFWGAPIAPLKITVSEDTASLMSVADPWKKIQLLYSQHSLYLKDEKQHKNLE
Chain of REV7^K129A (human) (Q9UI95 whole entry K129A): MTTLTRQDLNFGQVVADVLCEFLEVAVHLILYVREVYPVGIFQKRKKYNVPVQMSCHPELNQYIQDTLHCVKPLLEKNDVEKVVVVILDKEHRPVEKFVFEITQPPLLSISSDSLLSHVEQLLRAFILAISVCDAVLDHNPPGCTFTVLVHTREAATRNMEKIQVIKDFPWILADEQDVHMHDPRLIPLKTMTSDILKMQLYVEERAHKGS

In the experiment with MBP-SHLD2(1–60) (human), “REV7^W171A-SHLD3(1–82) (from UniProt Q9UI95 1-211; Q6ZNX1 1-82) (complex)” showed a Kd of 59 nM.

In the experiment with REV7^K129A (human), “REV7^K129A-SHLD3(1–82) (from UniProt Q9UI95 1-211; Q6ZNX1 1-82) (complex)” gave a Kd of 410 nM. In other words, the sub-micromolar range.

In turn, “REV7^Y63A-SHLD3(1–82) (from UniProt Q9UI95 1-211; Q6ZNX1 1-82) (complex)” had a Kd with MBP-SHLD2(1–60) (human) of 600 nM.

As a reminder, the Kd is the equilibrium constant for the complex coming apart. A low value points to a tighter complex.
